Columns and labels:
[1] = tested on: HER2 positive SK-BR-3 human breast cancer cells; assay: BiTE-induced T cell cytotoxicity by LDH release, SK-BR-3 target cells; format: cell-based
Procedure: To evaluate whether desialylation may enhance the susceptibility of tumor cells to BiTE-mediated cytotoxicity by T cells, we first constructed a BiTE molecule from a HER2-targeting scFv 4D5 and a human CD3-targeting scFv (4D5 BiTE). We then treated HER2 positive SK-BR-3 human breast cancer cells with a sialidase derived from Bifidobacterium longum subspecies infantis (B. infantis) to remove cell surface sialic acids. Following this procedure, treated cells were incubated with PBMCs from healthy human donors in the presence of 4D5 BiTE. Staining with FITC-Sambucus nigra agglutinin (SNA) that binds preferentially to sialic acid attached to terminal galactose in an a-2,6 linkage confirmed the success of cell surface desialylation. […] A similar trend was observed when 4D5 BiTE treatment was combined with a sialylation inhibitor, P-3Fax-Neu5Ac (FIG. 1, b). Next, we treated SK-BR-3 and MCF-7 breast cancer cells with 4D5 BiTE and hPBMCs in the presence or absence of B. infantis sialidase, respectively. […] The cytotoxicity enhancement is also observed with a different E: T ratio of 1:1 and the improvement of the BiTE-induced killing was sialidase dose-dependent.
(§1) Cell cytotoxicity measurement by lactate dehydrogenase (LDH) release: T cell cytotoxicity induced by BiTEs and BiTE-sialidase fusion proteins was measured by lactate dehydrogenase (LDH) release using CytoTox 96® Non-Radioactive Cytotoxicity Assay (Promega, G1780). tumor cells and hPBMCs (tumor cell:hPBMC=1:5) per well in […] media were exposed to different treatments and incubated in 96 well plates at 37° C. (unless different ratio was specified elsewhere). After 24 hours of coincubation, […] of media supernatant from each well was transferred to a new flat bottom 96 well plate and LDH release was measured using the supplier's protocol.

[2] = tested on: MCF-7 breast cancer cells; assay: BiTE-induced T cell cytotoxicity, MCF-7 target cells; format: cell-based, human
Procedure: (§2) To evaluate whether desialylation may enhance the susceptibility of tumor cells to BiTE-mediated cytotoxicity by T cells, we first constructed a BiTE molecule from a HER2-targeting scFv 4D5 and a human CD3-targeting scFv (4D5 BiTE). We then treated HER2 positive SK-BR-3 human breast cancer cells with a sialidase derived from Bifidobacterium longum subspecies infantis (B. infantis) to remove cell surface sialic acids. Following this procedure, treated cells were incubated with PBMCs from healthy human donors in the presence of 4D5 BiTE. Staining with FITC-Sambucus nigra agglutinin (SNA) that binds preferentially to sialic acid attached to terminal galactose in an a-2,6 linkage confirmed the success of cell surface desialylation. […]
as §1, with “(unless different ratio was specified elsewhere).” left out

PSMA-positive PC3 cells = assay: PSMA BiTE-induced T cell cytotoxicity, PC3 target cells; format: cell-based, human; conditions: sialidase and PSMA BiTEs added at the same time
Procedure: as §2
as §1, with “(unless different ratio was specified elsewhere).” left out

T cells [3] = assay: T cell surface activation markers (CD25, CD69, CD107a) by flow cytometry; format: cell-based, human; conditions: with 4D5 BiTEs
Procedure: (§3) Cytokine release and T cell surface activation marker measurement: For T cell cytokine release measurement, as with the cytotoxicity experiment, tumor cells and hPBMCs (tumor cell:hPBMC=1:5) were co-incubated per well in 96 well plates with different treatments in […] media at 37° C. for 24 hours. Then, […] of supernatant from each well was diluted in […] DPBS and used for IFN-γ, IL-2 and TNFα measurement. The ELISA measurement was done by ELISA MAX™ Sets. IFN-γ, IL-2 and TNFα kits (BioLegend) and the experiments were done according to the manufacturer's protocol. The exact concentration was calculated from a standard curve. For the cell surface activation marker measurement, tumor cells and hPBMCs (tumor cell:hPBMC=1:5) were co-incubated per well in 12 well plates with different treatments in 1 mL media at 37° C. for 24 hours. […] Cells were then washed twice with FACS buffer (PBS with 2.5% BSA) before being analyzed using flow cytometry. Data analysis and mean fluorescence intensity calculation were done by Flowjo. For the transcriptome analysis, 1.2 million hPBMCs and 0.1 million MDA-MB-231 cells were incubated together under the treatment of either 4 nM 4D5 BiTE or 4 nM 4D5 BiTE-sialidase (Three replicas for each condition). […]

T cells [4] = assay: T cell cytokine release (IFN-γ, IL-2, TNFα) by ELISA; format: cell-based, human; conditions: MCF7 cells incubated with hPBMCs and BiTE
Procedure: as §3

[5] = tested on: immune synapse between T cells and tumor cells; assay: BiTE-induced immune synapse formation, confocal imaging of CD3 and actin; format: cell-based, human
Text: Formation of the BiTE-induced immunological synapse (IS) between target cells and T cells is the essential mode of action of BiTEs. We hypothesized that the removal of cell-surface sialosides may promote stronger BiTE-induced IS formation between target tumor cells and T cells and thus better tumor cell killing. Accumulation of the TCR-CD3 complex and F-actin at the synapse is a hallmark of a stable and functional cytolytic IS in T cells. To test whether desialylation can promote IS formation, we imaged the IS formed between T cells and sialidase-treated and non-treated SK-BR-3 cells by staining F-actin and CD3. The resulting immunofluorescence was imaged by confocal microscopy. […] To assess the stability of the IS formed, we calculated the relative CD3 fluorescence intensity at the IS and the relative area of the IS.
Staining of human […] and actin for confocal imaging: Briefly, 0.4 million tumors cells were treated with 4 nM 4D5 BiTE or 4 nM 4D5 BiTE with 15 mg/ML sialidase in […] DMEM without the serum for 1 hr at 37° C. After the incubation, all the samples were washed twice using PBS before incubating with 0.4 million hPBMCs in 500 ml PBS for 30 min at 37° C. Then all the cells were transferred in 1 ml PBS to the coverslips in 12 well plates and incubated at 37° C. for 30 min to let cells attach to the coverslip. 1 ml 4% PFA was added to each well and incubated with shaking for 20 min at room temperature (RT) for cell fixing, and then each well was washed twice with ice cold PBS. […] PBST was used for washing for three times before anti-rabbit 488 (Invitrogen, 35553) and anti-mouse 594 ((Invitrogen, A-11005) secondary antibody was diluted and used for staining at RT for 30 min with shaking. Finally, samples were washed three times and each coverslip was transferred to a glass slide with mounting oil. Fingernail oil was used to seal the coverslip. Samples were analyzed on a Zeiss LSM880 with a 63× oil lens (NA 1.4). The relative mean fluorescent intensity (MFI) of […] accumulation and relative contact area of IS was calculated by imageJ.

[6] = tested on: CD19+ (Daudi) and EGFR+ (A549) cells; assay: BiKE-sialidase desialylation selectivity in co-culture; format: cell-based, human; conditions: 10 nM, 1h, serum-free medium, SNA or MALII staining
Procedure: We compared the desialylation activity and selectivity of BiKE-CD19-Sia and BIKE-EGFR-Sia in a co-culture assay comprising CD19+ (Daudi) and EGFR+ (A549) cells, respectively. 1:1 ratio of daudi cells and A549 cells were treated with PBS, 10 nM BiKE-CD19-Sia or 10 nM BiKE-EGFR-Sia for 1h in serum-free medium, followed by staining with SNA-biotin (targets α2,6-linker sialoglycans) or MALII-biotin (targets α2,3-linker sialoglycans) in HBSS buffer for 30 min. Next, the cell mixtures were stained by streptavidin-APC and EGFR-Pc5.5.

[7] = vs 4D5 BiTEs+hPBMCs and sialidase+hPBMCs controls
[8] = sialidase-treated vs untreated SK-BR-3 cells, 4D5 BiTE

Molecule: recombinant human CTLA-4: a high affinity ligand of CD80 [reference compound]
- desialylation-enhanced cytolysis with added CTLA-4 ([1]; high concentrations of CTLA-4 added with sialidase and 4D5 BiTE): no change in the enhanced cytolysis

B1: B. infantis sialidase: sialidase derived from Bifidobacterium longum subspecies infantis, SEQ ID NO: 5 (protein, listed as Bifidobacterium longum)
chain: MTENGMMNTNNTVCGANHDGAMSLAAPGDYGVACYRIPALAEAPNGWILAAFDARPHNCQDAPQANSIVQRISKDGGRSFEPQHVVAAGHDGVDKYGYSDPSYVVDRQTGEVFLFFVKSYDAGFGTSQAGVDPSAREVLQAAVTSSIDNGVTWSEPRIITADITNSESWISRFASSGAGIQLTYGEHAGRLIQQYTIKELDGRYRAVSVFSDDHGATWHAGTPVGDHMDENKVVELSDGRVMLNSRSSDGNGCRYVAISRDGGATYGPVIRETQLPDPENNAQIARAFPDAPEGSAQAKVLLYSSSSPSDRIDGLVRVSIDDGKTWSAGRRFTTGPMAYSVIAALSHKAGGGYGLLYEGDNNNIMYTRISLDWLNGQLNVDGIGGFPLSGEGGC
- 4D5 BiTE-induced tumor cell killing by T cells after sialidase treatment ([1]; tumor cells pre-treated with sialidase, hPBMCs, effector:target 5:1, vs 4D5 BiTEs alone): significantly potentiated the 4D5 BiTE-induced tumor cell killing
- killing with 4D5 BiTE and hPBMCs in presence of sialidase [1, 7]: stronger killing
- BiTE-mediated target cell killing with sialidase treatment ([2]; purified T cells as effectors): better BiTE-mediated target cell killing
- killing with 4D5 BiTE and hPBMCs in presence of sialidase [2, 7]: stronger killing
- PSMA BiTE-induced cytotoxicity with sialidase (PSMA-positive PC3 cells): stronger cytotoxicity enhancement
- T cell activation (CD25 and CD69 expression) on addition of sialidase (T cells [3]): significantly enhanced
- IFN-γ secretion on addition of sialidase (T cells [4]): significantly enhanced
- BiTE-induced immune synapse formation ([5]; SKOV-3 cells and T cells, with sialidase treatment): better IS formed
- CD3 accumulation at the immune synapse [5, 8]: significantly stronger CD3 accumulation
- relative immune synapse area [5, 8]: larger IS area

B2: BIKE-EGFR-Sia: anti-EGFR BiKE-sialidase fusion, TAL4S format, SEQ ID NO: 28 (protein)
chain: QVQLQESGPGLVKPSETLSLTCTVSGGSVSSGSYYWSWIRQPPGKGLEWIGYIYYSGSTNYNPSLKSRVTISVDTSKNQFSLKLSSVTAADTAVYYCARNPISIPAFDIWGQGTMVTVSSGGGGSGGGGSGGGGSQPVLTQPPSVSVAPGKTARITCGGNNIGSKSVHWYQQKPGQAPVLVIYYDSDRPSGIPERFSGSNSGNTATLTISRVEAGDEADYYCQVWDTSSDHVLFGGGTKLTVLGGGGSQVQLVQSGAEVKKPGESLKVSCKASGYTFTSYYMHWVRQAPGQGLEWMGIINPSGGSTSYAQKFQGRVTMTRDTSTSTVYMELSSLRSEDTAVYYCARGSAYYYDFADYWGQGTLVTVSSGGGGSGGGGSGGGGSSYVLTQPSSVSVAPGQTATISCGGHNIGSKNVHWYQQRPGQSPVLVIYQDNKRPSGIPERFSGSNSGNTATLTISGTQAMDEADYYCQVWDNYSVLFGGGTKLTVLGGGGSGGGGSGGGGSGGGGSMTENGMMNTNNTVCGANHDGAMSLAAPGDYGVACYRIPALAEAPNGWILAAFDARPHNCQDAPQANSIVQRISKDGGRSFEPQHVVAAGHDGVDKYGYSDPSYVVDRQTGEVFLFFVKSYDAGFGTSQAGVDPSAREVLQAAVTSSIDNGVTWSEPRIITADITNSESWISRFASSGAGIQLTYGEHAGRLIQQYTIKELDGRYRAVSVFSDDHGATWHAGTPVGDHMDENKVVELSDGRVMLNSRSSDGNGCRYVAISRDGGATYGPVIRETQLPDPENNAQIARAFPDAPEGSAQAKVLLYSSSSPSDRIDGLVRVSIDDGKTWSAGRRFTTGPMAYSVIAALSHKAGGGYGLLYEGDNNNIMYTRISLDWLNGQLNVDGIGGFPLSGEGGC
- selective desialylation activity [6]: selective desilylation activity

From US20250354133A1, “SIALIDASE FUSION MOLECULES AND RELATED USES” (The Scripps Research Institute, priority 2022, published 2025)
